Data as given in PMC4456160 (Nature structural & molecular biology, 2015).
Positions count from the first letter of the chain named. Numbers in names are those of the source. Like-named read-outs stand apart in the source and are kept apart here. Values belong to the molecule of their own block, whether it stands above or below them.

T1: full length ectodomain of human RGMC (eRGMC) (human, UniProt Q6ZVN8 36-400)
T1 sequence: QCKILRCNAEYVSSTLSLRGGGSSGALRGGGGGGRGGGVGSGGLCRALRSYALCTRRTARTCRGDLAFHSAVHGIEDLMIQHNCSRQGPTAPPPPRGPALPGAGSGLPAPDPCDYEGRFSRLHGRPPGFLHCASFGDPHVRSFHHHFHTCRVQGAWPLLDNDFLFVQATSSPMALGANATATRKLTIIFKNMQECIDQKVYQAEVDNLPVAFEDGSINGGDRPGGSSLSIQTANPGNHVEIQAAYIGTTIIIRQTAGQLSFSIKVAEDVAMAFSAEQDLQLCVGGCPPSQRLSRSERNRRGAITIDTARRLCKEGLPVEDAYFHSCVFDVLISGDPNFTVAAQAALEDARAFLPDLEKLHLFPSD

B1: N-terminal domain of human RGMA (RGMAND) (domain or fragment)
chain: TSPCKILKCNSEFWSATSGSHAPASDDTPEFCAALRSYALCTRRTARTCRGDLAYHSAVHGIEDLMSQHNCSKDGPTSQPRLRTLPPAGDSQERS
B2: N-terminal domain of human RGMC (RGMCND) (domain or fragment)
chain: QCKILRCNAEYVSSTLSLRGGGSSGALRGGGGGGRGGGVGSGGLCRALRSYALCTRRTARTCRGDLAFHSAVHGIEDLMIQHNCSRQGPTAPPPPRGPALPGAGSGLPAPDP
B3: RGMCND-G99R (domain or fragment)
chain: B2 chain with G64R
B4: RGMCND-L101P (domain or fragment)
chain: B2 chain with L66P
B5: full length ectodomain of human RGMB (eRGMB) (domain or fragment)
chain: QCRIQKCTTDFVSLTSHLNSAVDGFDSEFCKALRAYAGCTQRTSKACRGNLVYHSAVLGISDLMSQRNCSKDGPTSSTNPEVTHDPCNYHSHAGAREHRRGDQNPPSYLFCGLFGDPHLRTFKDNFQTCKVEGAWPLIDNNYLSVQVTNVPVVPGSSATATNKITIIFKAHHECTDQKVYQAVTDDLPAAFVDGTTSGGDSDAKSLRIVERESGHYVEMHARYIGTTVFVRQVGRYLTLAIRMPEDLAMSYEESQDLQLCVNGCPLSERIDDGQGQVSAILGHSLPRTSLVQAWPGYTLETANTQCHEKMPVKDIYFQSCVFDLLTTGDANFTAAAHSALEDVEALHPRKERWHIFPSSG
B6: human BMP2 (Bone Morphogenetic Protein 2), disulfide-linked dimer (ligand)
chain: QAKHKQRKRLKSSCKRHPLYVDFSDVGWNDWIVAPPGYHAFYCHGECPFPLADHLNSTNHAIVQTLVNSVNSKIPKACCVPTELSAISMLYLDENEKVVLKNYQDMVVEGCGCR
B7: secreted ectodomain of human BMPR1A (eBMPR1A) (receptor)
chain: TLAPEDTLPFLKCYCSGHCPDDAINNTCITNGHCFAIIEEDDQGETTLASGCMKYEGSDFQCKDSPKAQLRRTIECCRTNLCNQYLQPTLPPV
B8: mouse NEO1 fifth and sixth fibronectin type III domains (NEO1FN56) (domain or fragment)
chain: TPMMPPVGVQASILSHDTIRITWADNSLPKHQKITDSRYYTVRWKTNIPANTKYKNANATTLSYLVTGLKPNTLYEFSVMVTKGRRSSTWSMTAHGATFELVPTSPPKDVTVVSKEGKPRTIIVNWQPPSEANGKITGYIIYYSTDVNAEIHDWVIEPVVGNRLTHQIQELTLDTPYYFKIQARNSKGMGPMSEAVQFRTP
B9: N-terminal domain of human RGMB (RGMBND) (domain or fragment)
chain: QCRIQKCTTDFVSLTSHLNSAVDGFDSEFCKALRAYAGCTQRTSKACRGNLVYHSAVLGISDLMSQRNCSKDGPTSSTNPEVTH
B10: mouse NEO1 FN5-FN6 with juxtamembrane stretch (NEO1FN56M) (domain or fragment)
chain: TPMMPPVGVQASILSHDTIRITWADNSLPKHQKITDSRYYTVRWKTNIPANTKYKNANATTLSYLVTGLKPNTLYEFSVMVTKGRRSSTWSMTAHGATFELVPTSPPKDVTVVSKEGKPRTIIVNWQPPSEANGKITGYIIYYSTDVNAEIHDWVIEPVVGNRLTHQIQELTLDTPYYFKIQARNSKGMGPMSEAVQFRTPKADSSDKMPNDQALGSAGKGSRLPDLGSDYKPPMSGSNSPHGSPTSPLDSN

Experiments:
[1] = biological target: human BMP2 (Bone Morphogenetic Protein 2), disulfide-linked dimer (human) (UniProt P12643); assay: SPR
[2] = biological target: B6; assay: crystal structure
[3] = biological target: B6; assay: SPR
[4] = biological target: B6; assay: crystal structure; remark: listed apart in the source
[5] = biological target: B6; assay: SAXS
[6] = biological target: B5; assay: SPR
[7] = biological target: T1, full length ectodomain of human RGMC …; assay: SPR
crystal structure = biological target: the molecule itself; assay: crystal structure
[8] = biological target: B6; assay: SEC-MALS
[9] = biological target: B6; assay: SPR; remark: listed apart in the source
[10] = biological target: B5; assay: crystal structure
[11] = biological target: B5; assay: SAXS

Kd [1]: 280 nM
Molecule: RGMC H104A mutant (from UniProt Q6ZVN8 36-147) (domain or fragment)

Molecule: B1
binding result [2]: binds

Molecule: B2
Kd [3]: 124 nM
stoichiometry N [2]: 2 RGMC per BMP2 dimer

Molecule: B3
Kd [3]: 910 nM

Molecule: B4
Kd [3]: 1500 nM

Molecule: B5
stoichiometry N [4]: 2 RGMB per BMP2 dimer
stoichiometry N [5]: 2 eRGMB per BMP2 dimer (printed 2:2:2)

Molecule: B6
binding result [6]: binds
binding result [7]: binds
stoichiometry N (crystal structure): 2

Molecule: B7
stoichiometry N [8]: 2 eBMPR1A per disulfide-linked BMP2 dimer (printed 2:2)
Kd [9]: 280 nM

Molecule: B8
binding result [10]: binds

Molecule: B9
Kd [3]: 88 nM
stoichiometry N [8]: 2 RGMBND per disulfide-linked BMP2 dimer (printed 2:2)

Molecule: B10
stoichiometry N [11]: 1 NEO1 per eRGMB (printed 2:2:2)
